The record followed here is PMC11661314 (bioRxiv, 2024).

Substitutions are numbered along the chain they refer to.

Assay in all cases: ELISA
In assay [1] the target is T1, K. pneumoniae (TOP52) FimH lectin domain truncate (Klebsiella pneumoniae TOP52, strain).
T1 chain: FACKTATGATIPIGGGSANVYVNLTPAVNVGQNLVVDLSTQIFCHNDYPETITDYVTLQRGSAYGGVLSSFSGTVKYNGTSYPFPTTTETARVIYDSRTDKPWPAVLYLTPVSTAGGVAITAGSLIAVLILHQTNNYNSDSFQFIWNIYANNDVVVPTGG

Assay [2] deals with T2, E. coli (UTI89) FimH lectin domain truncate (Escherichia coli UTI89, strain).
T2 chain: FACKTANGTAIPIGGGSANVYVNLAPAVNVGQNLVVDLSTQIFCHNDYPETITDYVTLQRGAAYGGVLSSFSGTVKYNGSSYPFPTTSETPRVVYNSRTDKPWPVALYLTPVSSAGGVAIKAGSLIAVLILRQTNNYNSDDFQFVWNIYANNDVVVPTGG

Assay [3] has as its target T3, E. coli FmlH lectin domain (Escherichia coli UTI89 (strain from PDB …)).
T3 chain: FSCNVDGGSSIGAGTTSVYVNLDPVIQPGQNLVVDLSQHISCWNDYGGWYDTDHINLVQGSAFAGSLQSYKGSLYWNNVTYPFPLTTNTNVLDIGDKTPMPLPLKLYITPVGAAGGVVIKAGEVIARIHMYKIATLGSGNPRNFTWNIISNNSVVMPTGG

B1: Kp1 2H04 mAb (chimeric murine/human IgG) (antibody, V domains shown)
VH: EVQLQQSGAELVKPGASVKLSCKASGYTFTSYWMHWVKQRPGQGLEWIGLIHPNSSSTYYNEKFKTRATLTVDKSSSTAYMQLSSLTSEDSAVYYCARLGYGNSYWYFDVWGTGTTVTVSS
VL: QIVLTQSPALMAASPGEKVTITCSVSSSISSSNLHWYQQKSETSPKPWIYGTSNLASGVPIRFSGSGSGTSYSLTISSLEAEDAATYYCQQWRSYPWTFGGGTKLEIK
Consider B1, for which the binding result in assay [1] and in assay [2] was “binds” each time.

B2: Ec1 F7 mAb (chimeric murine/human IgG) (antibody, V domains shown)
VH: EVQLQQPGPVLVKPGPSVKISCKASGFTFTDYFIHWVKQSHGKSLEWIGLVSPYNGGTYYNQQFKGKATLTVDTSSSTAYMDLNSLTSEDSAVYYCTRLLRGYWYFDVWGTGTTVTVSS
VL: B1 VL with S30G, I61V, L79M, R93S, S94T, W97Y
For the molecule B2, the binding result in assay [1] and in assay [2] was “binds” each time.

B3: Ec3 B7 mAb (chimeric murine/human IgG) (antibody, V domains shown)
VH: EVQLQQPGAELVRPGASVKMSCKASGYTFTIYNLHWVKQTPRQGLEWIGTIYPGDGDTSYNQKFKGKATLTVDKSSSTAYMQLSNLTSEDSAVYFCAREGDYGPWFAYWGQGTLVTVSA
VL: QIVLTQSPAIMSASPGEKVTMTCRASSSVSSSYLHWYQQKSGASPKLWIYSSSNLASGVPARFSGSGSGTSYSLTINSVEAEDAATYYCQHYGSYPLTFGGGTKLEIK
With B3, the binding result in assay [2] was “binds”.

B4: Kp2 2C07 mAb (chimeric murine/human IgG) (antibody, V domains shown)
VH: EVKLVESGEGLVKPGGSLKLSCAASGFTFSSYAMSWVRQTPEKRLDWVAYISSGGDHIYYADTVKGRFTISRDNARNTLYLQMSSLKSEDTAMYYCTRDTGYYVSRYFDVWGTGTTVTVSS
VL: DIVMTQSQKFMSTSVGDRVSVTCKASQNVVTNVAWYQQKSGQSPKVVIYSASFRSSGVPDRFTGSGSGTDFTLTISNVQSEDLAEYFCHQYNSHPLTFGGGTKLEIK
For the molecule B4, the binding result in assay [3] is “no binding”; in assay [1] it was “binds”; in assay [2], “binds”.
